# Laboratory results as given in patent US11555213B2, “Nucleic acid encoding a modified homoserine dehydrogenase” (CJ CHEILJEDANG CORPORATION, priority 2018, dated 2023).
# Where a chain is given by its changes, count along the chain named. In names and notes the source's numbering stands.
# B1: T285I: Hom (SEQ ID NO: 10), threonine at position 285 mutated to isoleucine (protein)
# chain: MTSASAPSFNPGKGPGSAVGIALLGFGTVGTEVMRLMTEYGDELAHRIGGPLEVRGIAVSDISKPREGVAPELLTEDAFALIEREDVDIVVEVIGGIEYPREVVLAALKAGKSVVTANKALVAAHSAELADAAEAANVDLYFEAAVAGAIPVVGPLRRSLAGDQIQSVMGIVNGTTNFILDAMDSTGADYADSLAEATRLGYAEADPTADVEGHDAASKAAILASIAFHTRVTADDVYCEGISNISAADIEAAQQAGHTIKLLAICEKFTNKEGKSAISARVHPILLPVSHPLASVNKSFNAIFVEAEAAGRLMFYGNGAGGAPTASAVLGDVVGAARNKVHGGRAPGESTYANLPIADFGETTTRYHLDMDVEDRVGVLAELASLFSEQGISLRTIRQEERDDDARLIVVTHSALESDLSRTVELLKAKPVVKAINSVIRLERD
# modifications: Hom (KFCC10881-1)
# B2: G378S: Hom (SEQ ID NO: 13), glycine at position 378 mutated to serine (protein)
# chain: B1 chain with I285T, G378S
# modifications: Hom (KFCC10881-22)
# B3: G378W: Hom (SEQ ID NO: 12), glycine at position 378 mutated to tryptophan (protein)
# chain: B1 chain with I285T, G378W
# modifications: Hom (KFCC10881-19)
# B4: R398Q: Hom (SEQ ID NO: 11), arginine at position 398 mutated to glutamine (protein)
# chain: B1 chain with I285T, R398Q
# modifications: Hom (KFCC10881-14)
# Tested on: homoserine dehydrogenase (Hom)
# Experiment: Measurement of activity of homoserine dehydrogenase in crude extracts, desensitization by L-threonine
# Format: biochemical, Corynebacterium glutamicum
# Settings: 10 mM L-threonine, unlike the wild-type Hom
# Method: The activity of the enzyme Hom was measured in the prepared strains. The wild-type strain ATCC13032 in a control group and CTR-T285I, CTR-R398Q, CTR-G378W, and CTR-G378S prepared in Example 4 were inoculated into 25 mL of the seed medium, and then cultured until reaching the late log phase. The cells were recovered by centrifugation, washed twice with a 0.1 M potassium phosphate buffer (pH 7.6), and finally suspended in 2 mL of the same buffer containing glycerol at a concentration of 30%. The cell suspension was physically disrupted by a conventional glass bead vortexing method for 10 minutes, and then the supernatant was recovered through two centrifugations (13,000 rpm, 4° C., 30 minutes) and used as a crude extract for measuring the activity of the enzyme Hom. For the measurement of the activity of Hom, a coenzyme solution (0.1 mL) was added to a reaction solution for measuring the enzyme activity (a potassium phosphate (pH 7.0) buffer, 25 mM NADPH, 5 mM aspartate semi-aldehyde), and then reacted at 30° C. The Hom activity U was defined as the number of NADPH μmol consumed per minute according to the presence of L-threonine (0 mM, 10 mM), and the results of the enzyme activity are shown in Table 2 below.
row,Molecule,inhibition of Hom activity by L-threonine (desensitization)
1,B1,inhibition of the activity was reduced
2,B2,inhibition of the activity was reduced
3,B3,inhibition of the activity was reduced
4,B4,inhibition of the activity was reduced
